# Values of other authors in publication PMC12756081.
# Key:
# [1] = biological target: IL-18Rα/IL-18Rβ (Homo sapiens) (UniProt Q13478); conditions: cited from earlier work
# IL-18Rα (Homo sapiens) = IL-18Rα (Homo sapiens) (UniProt Q13478); conditions: cited from earlier work
# Sequence of IL-18Rα (Homo sapiens) (Q13478 19-541): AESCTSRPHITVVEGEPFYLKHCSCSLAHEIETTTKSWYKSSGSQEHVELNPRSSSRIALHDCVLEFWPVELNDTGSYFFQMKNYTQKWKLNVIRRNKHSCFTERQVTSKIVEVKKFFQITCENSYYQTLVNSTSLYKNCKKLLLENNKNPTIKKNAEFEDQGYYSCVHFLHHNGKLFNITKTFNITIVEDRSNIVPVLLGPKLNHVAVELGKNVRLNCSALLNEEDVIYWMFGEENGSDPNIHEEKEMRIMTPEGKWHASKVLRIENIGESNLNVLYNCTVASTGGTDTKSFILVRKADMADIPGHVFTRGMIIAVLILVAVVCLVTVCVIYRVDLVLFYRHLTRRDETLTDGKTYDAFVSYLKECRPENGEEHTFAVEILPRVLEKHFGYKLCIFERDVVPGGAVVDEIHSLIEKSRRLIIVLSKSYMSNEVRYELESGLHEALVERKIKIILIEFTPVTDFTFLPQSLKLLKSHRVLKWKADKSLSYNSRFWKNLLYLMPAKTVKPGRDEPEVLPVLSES
# Sequence of IL-18 (Q14116 37-193): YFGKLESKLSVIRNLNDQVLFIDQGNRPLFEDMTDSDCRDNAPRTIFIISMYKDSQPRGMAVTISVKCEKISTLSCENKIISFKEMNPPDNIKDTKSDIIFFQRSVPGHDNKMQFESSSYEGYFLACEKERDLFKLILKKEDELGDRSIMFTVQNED
# Sequence of IL-18Rα/IL-18Rβ (Homo sapiens) (Q13478 19-541, chain 1 of 2): as the sequence (Q13478 19-541) above
# Sequence of IL-18Rα/IL-18Rβ (Homo sapiens) (O95256 20-599, chain 2 of 2, further chain): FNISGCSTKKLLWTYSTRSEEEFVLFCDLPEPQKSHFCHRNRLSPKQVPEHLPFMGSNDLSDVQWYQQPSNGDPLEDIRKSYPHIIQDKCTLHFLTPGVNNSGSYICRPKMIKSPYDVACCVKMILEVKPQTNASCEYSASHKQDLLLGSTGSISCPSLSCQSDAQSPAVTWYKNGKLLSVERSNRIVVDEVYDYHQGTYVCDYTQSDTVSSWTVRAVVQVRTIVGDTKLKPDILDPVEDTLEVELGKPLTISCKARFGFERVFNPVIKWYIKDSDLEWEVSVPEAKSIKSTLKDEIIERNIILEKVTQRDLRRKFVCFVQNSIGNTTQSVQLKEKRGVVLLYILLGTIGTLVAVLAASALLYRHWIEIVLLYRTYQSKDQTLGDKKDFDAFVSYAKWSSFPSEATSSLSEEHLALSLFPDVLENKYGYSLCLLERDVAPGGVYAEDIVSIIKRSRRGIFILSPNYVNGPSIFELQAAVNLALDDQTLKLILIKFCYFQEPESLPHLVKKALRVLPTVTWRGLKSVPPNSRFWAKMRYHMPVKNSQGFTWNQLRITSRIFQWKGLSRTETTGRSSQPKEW
substance,measurement,setting,value
IL-18 (from UniProt Q14116),Kd,[1],1 nM
same,Kd,IL-18Rα (Homo sapiens),30 nM
